Results: patent US12723105 (BEIJING STARMAB BIOMED TECHNOLOGY, dated 2026)
Where a chain is given by its changes, count along the chain named. In names and notes the source's numbering stands.

Assays:
Human CD16A = target: T1, Human CD16A (human, UniProt P08637 17-208, limits assumed); assay: BLI (Octet) as in Example 1, His-tagged VHH, human CD16A
T1 construct: also called FcγRIIIa

[1] = target: T2, CD47 natively expressed on tumor cell surface (Jurkat, HL60 cells) (human, UniProt Q08722 19-323); assay: flow cytometry on HL60 cells (express CD47 but not PD-L1)
T2 construct: whole, on cells; also called CD47 on the HL60 cell surface; CD47 on the Jurkat cell surface

Human serum albumin [2] = target: T3, Human serum albumin (human, UniProt P02768 25-609); assay: BLI (Octet) as in Example 1, His-tagged VHH, HSA
T3 construct: also called HSA

Monkey serum albumin = Monkey serum albumin (Monkey); assay: BLI (Octet), cross-species albumin binding
Human serum albumin [3] = target: T3, Human serum albumin; assay: BLI (Octet), cross-species albumin binding
mouse serum albumin = mouse serum albumin (mouse, UniProt P07724 25-608); assay: BLI (Octet), cross-species albumin binding

T1 sequence (P08637 17-208 limits assumed): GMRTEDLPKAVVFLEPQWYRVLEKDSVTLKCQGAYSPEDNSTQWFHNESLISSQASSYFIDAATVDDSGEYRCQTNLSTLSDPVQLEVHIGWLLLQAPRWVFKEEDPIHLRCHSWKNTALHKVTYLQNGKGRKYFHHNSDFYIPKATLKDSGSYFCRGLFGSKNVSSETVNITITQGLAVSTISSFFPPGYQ

B1: CD16F1 (VHH)
VHH: EVQLVESGGGLVQPGGSLRLSCAVSGSLFSARVMGWYRQAPGKQRELVAAITSGVRTDYADSVKGRFTISRDNAKRAVYLQMNSLKPEDTAVYYCNVNLYNTGNYWGQGTQVTVSS
notes: not shown: C-terminal His-tag
Kd (Human CD16A): 4.68 nM | koff (Human CD16A): 0.000109 s⁻¹ | kon (Human CD16A): 23300 M⁻¹ s⁻¹

B2: CD16E11 (VHH)
VHH: QVQLVESGGGLVQPGGSLTLSCRASGFTFSNHAMSWVRQAPGKGLEWVSEISFNGHATRYADSLKGRFTISRDNAKNTLYLQMNTLKPEDTAVYYCRKGWNATPQIGERGRGTQVTVSS
notes: not shown: C-terminal His-tag
Kd (Human CD16A): 3.02 nM | koff (Human CD16A): 6e-05 s⁻¹ | kon (Human CD16A): 19900 M⁻¹ s⁻¹

B3: 1518-HS5-GS15 (bispecific antibody)
chain: EVQLVESGGGLVQPGGSLRLSCAVSGSLFSARVMGWYRQAPGKQRELVAAITSGVRTDYADSVKGRFTISRDNAKRAVYLQMNSLKPEDTAVYYCNVNLYNTGNYWGQGTQVTVSSGGGGSGGGSEVQLLESGGGLVQPGGSLRLSCAASGRTFTTHAMGWFRQAPGKEREFVSAINWGGRTTYYADSVKGRFIISRDTGANTLYLQMNSLRAEDTAVYYCASNLDTYNVRAGTTNSWGQGTQVTVSSGGGGSGGGGSGGGGSEVQLVESGGGLVQPGGSLRLSCAASGGGRTFSNYALGWFRQAPGKEREFVAAISRSGGNINYADSVKGRFTISRDNFKNTVYLQMSSLRAEDTAVYYCAAHYLLLPSYISTSTNMYNYWGQGTQVTVSSAAAQVQLVESGGGLVQPGGSLRLSCAASGGGRTFSNYALGWFRQAPGKEREFVAAISRSGGNINYADSVKGRFTISRDNAKNTVYLQMSSLRAEDTAVYYCAAHYLLLPSYISTSTNMYNYWGQGTQVTVSSGGGGSGGGSEVQLVESGGGLVQPGGSLRLSCAASGGTFLTYSMSWVRQAPGKEREFVSSINWSGYMTYYADSVKGRFTISRDNSKNTLYLQMNSLRAEDTAVYYCAAARTAIAAKRSSEFDYWGQGTQVTVSSAAAEVQLVESGGGLVQPGGSLRLSCAASGGTFLTYSMSWVRQAPGKEREFVSSINWSGYMTYYADSVKGRFTISRDNSKNTLYLQMNSLRAEDTAVYYCAAARTAIAAKRSSEFDYWGQGTQVTVSS
notes: Multi-specific single chain antibody with the 15-residue linker (G4S)3 between the anti-HSA and anti-CD47 domains
EC50 [1]: 8.4 nM

B4: 1518-HS5 (CD16F1-L1-hHS5-L1-hA09-10-3-L3-hA09-10-4-L1-hPL16-L3-hPL16) (bispecific antibody)
chain: EVQLVESGGGLVQPGGSLRLSCAVSGSLFSARVMGWYRQAPGKQRELVAAITSGVRTDYADSVKGRFTISRDNAKRAVYLQMNSLKPEDTAVYYCNVNLYNTGNYWGQGTQVTVSSGGGGSGGGSEVQLLESGGGLVQPGGSLRLSCAASGRTFTTHAMGWFRQAPGKEREFVSAINWGGRTTYYADSVKGRFIISRDTGANTLYLQMNSLRAEDTAVYYCASNLDTYNVRAGTTNSWGQGTQVTVSSGGGGSGGGSEVQLVESGGGLVQPGGSLRLSCAASGGGRTFSNYALGWFRQAPGKEREFVAAISRSGGNINYADSVKGRFTISRDNFKNTVYLQMSSLRAEDTAVYYCAAHYLLLPSYISTSTNMYNYWGQGTQVTVSSAAAQVQLVESGGGLVQPGGSLRLSCAASGGGRTFSNYALGWFRQAPGKEREFVAAISRSGGNINYADSVKGRFTISRDNAKNTVYLQMSSLRAEDTAVYYCAAHYLLLPSYISTSTNMYNYWGQGTQVTVSSGGGGSGGGSEVQLVESGGGLVQPGGSLRLSCAASGGTFLTYSMSWVRQAPGKEREFVSSINWSGYMTYYADSVKGRFTISRDNSKNTLYLQMNSLRAEDTAVYYCAAARTAIAAKRSSEFDYWGQGTQVTVSSAAAEVQLVESGGGLVQPGGSLRLSCAASGGTFLTYSMSWVRQAPGKEREFVSSINWSGYMTYYADSVKGRFTISRDNSKNTLYLQMNSLRAEDTAVYYCAAARTAIAAKRSSEFDYWGQGTQVTVSS
notes: Multi-specific single chain antibody with the 9-residue linker G4SG3S between the anti-HSA and anti-CD47 domains
EC50 [1]: 26 nM

B5: HS5 (VHH)
VHH: EVQLVESGGGLVQAGGSLRLSCAASGRTFTTHAMGWFRQAPGKEREFVATINWGGRTTYYADSVKGRFIISRDTGANTVYLQMNSLKPEDTAVYYCASNLDTYNVRAGTTNSWGQGTQVTVSS
notes: not shown: C-terminal His-tag
Kd (Human serum albumin [2]): 0.946 nM | koff (Human serum albumin [2]): 0.000765 s⁻¹ | kon (Human serum albumin [2]): 809000 M⁻¹ s⁻¹

B6: hHS5 (VHH)
VHH: B5 VHH with V5L, A14P, A49S, T50A, V79L, K87R, P88A
notes: also called humanized HS5; not shown: C-terminal His-tag
Kd (Monkey serum albumin): 11.6 nM | Kd (Human serum albumin [3]): 0.817 nM

B7: HS6 (VHH)
VHH: EVQLVESGGGLVQAGGSLRLSCAASGRIFHTYAVGWFRQAPGKERESVVIINWSSDHTYVAQSVKGRFTISRDRAKNTFYLQMNSLKPEDTAVYYCAVRRRLYGLRESDFDSWGQGTQVTVSS
notes: not shown: C-terminal His-tag
Kd (Human serum albumin [2]): 0.498 nM | koff (Human serum albumin [2]): 0.000829 s⁻¹ | kon (Human serum albumin [2]): 1.67e+06 M⁻¹ s⁻¹

B8: HS12 (VHH)
VHH: QVQLVESGGGSVQAGGSLRLSCAASGRTFISFSMGWFRQAPGKEREFVASITNSGSGILYGDSVKGRFTISRDNAKNTMYLQMNSLKPEDTAVYYCAAGTGAGRYRYASMFDYWGQGTQVTVSS
notes: not shown: C-terminal His-tag
Kd (Human serum albumin [2]): 0.568 nM | koff (Human serum albumin [2]): 0.000583 s⁻¹ | kon (Human serum albumin [2]): 1.03e+06 M⁻¹ s⁻¹

B9: HS10 (VHH)
VHH: EVQLVESGGGLVQPGGSLRLSCAASGSTDSAYRMGWFRQAPGKEREFVSAINWSDGRTYYADSVKGRFTISRDNSKNTLYLQMNSLRAEDTAVYYCAADPDSRLYYTVPQNYDYWGQGTLVTVSS
notes: not shown: C-terminal His-tag
Kd (Human serum albumin [2]): 2.89 nM | koff (Human serum albumin [2]): 8.01e-05 s⁻¹ | kon (Human serum albumin [2]): 27700 M⁻¹ s⁻¹

B10: hHS10 (VHH)
VHH: B9 VHH
notes: also called humanized HS10; not shown: C-terminal His-tag
Kd (Monkey serum albumin): 8.08 nM | Kd (mouse serum albumin): 4.57 nM | Kd (Human serum albumin [3]): 3.18 nM
